Measurements taken from article PMC4497409, “Structure and functional properties of Norrin mimic Wnt for signalling with Frizzled4, Lrp5/6, and proteoglycan” (eLife, 2015).
Where “and” joins values, the source holds several entries; their conditions need not be identical. Identical values can stand only once.

T1: Frizzled8 cysteine-rich domain, mouse (mouse, UniProt Q61091 30-170)
T1 sequence (looked up): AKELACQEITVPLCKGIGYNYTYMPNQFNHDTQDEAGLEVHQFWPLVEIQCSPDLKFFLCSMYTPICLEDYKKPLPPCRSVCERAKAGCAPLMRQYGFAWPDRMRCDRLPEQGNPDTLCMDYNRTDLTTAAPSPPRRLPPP

T2: Frizzled5 cysteine-rich domain, mouse (mouse, UniProt Q9EQD0 31-176)
T2 sequence (looked up): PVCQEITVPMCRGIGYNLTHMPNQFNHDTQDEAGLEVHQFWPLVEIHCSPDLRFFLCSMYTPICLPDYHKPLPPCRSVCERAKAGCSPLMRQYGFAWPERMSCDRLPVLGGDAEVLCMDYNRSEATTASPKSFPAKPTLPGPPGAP

T3: Lrp6 ectodomain fragment comprising the first two tandem beta-propeller-epidermal growth factor-like domain … (human, UniProt O75581 20-631)
T3 construct: signal peptide in the construct; low-density lipoprotein receptor related protein 6, human, residues 1-631 (P1E1P2E2)
T3 sequence (looked up): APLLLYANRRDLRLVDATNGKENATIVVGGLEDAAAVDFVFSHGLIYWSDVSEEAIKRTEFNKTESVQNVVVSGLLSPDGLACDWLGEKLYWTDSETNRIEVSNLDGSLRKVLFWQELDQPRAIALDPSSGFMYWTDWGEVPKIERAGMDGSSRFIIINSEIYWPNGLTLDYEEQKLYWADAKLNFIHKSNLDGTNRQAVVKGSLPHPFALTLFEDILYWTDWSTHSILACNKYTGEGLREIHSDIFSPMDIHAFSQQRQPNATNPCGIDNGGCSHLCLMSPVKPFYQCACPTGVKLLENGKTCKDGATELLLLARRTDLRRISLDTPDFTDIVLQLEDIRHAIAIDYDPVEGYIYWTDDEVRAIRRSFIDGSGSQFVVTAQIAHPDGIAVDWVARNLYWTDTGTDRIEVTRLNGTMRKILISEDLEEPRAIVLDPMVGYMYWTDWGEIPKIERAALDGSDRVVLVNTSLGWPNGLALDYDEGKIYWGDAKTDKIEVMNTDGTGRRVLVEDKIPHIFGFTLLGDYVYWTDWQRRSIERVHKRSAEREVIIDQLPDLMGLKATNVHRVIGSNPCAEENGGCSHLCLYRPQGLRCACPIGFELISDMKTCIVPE

B1: Biotinylated human Norrin wild-type (pHL-Avitag3 construct) (ligand, UniProt Q00604 25-133, looked up)
chain: KTDSSFIMDSDPRRCMRHHYVDSISHPLYKCSSKMVLLARCEGHCSQASRSEPLVSFSTVLKQPFRSSCHCCRPQTSKLKALRLRCSGGMRLTATYRYILSCHCEECNS
modifications: biotin on the C-terminal BirA recognition sequence (in vivo biotinylation)
notes: Norrin (Norrie Disease Protein), human, UniProtKB/Swiss-Prot Q00604; The same plasmids were used in the luciferase reporter assays; also called Norrin WT; source: HEK293T, co-transfected with BirA-ER for in vivo biotinylation, secreted
B2: Frizzled4 cysteine-rich domain (Fz4CRD), human (domain or fragment, UniProt Q9ULV1 42-179, looked up)
chain: ERRCDPIRISMCQNLGYNVTKMPNLVGHELQTDAELQLTTFTPLIQYGCSSQLQFFLCSVYVPMCTEKINIPIGPCGGMCLSVKRRCEPVLKEFGFAWPESLNCSKFPPQNDHNHMCMEGPGDEEVPLPHKTPIQPGE
modifications: N-linked glycans at Asn59 and Asn144 (full, or cut to N-acetylglucosamine by Endo-F1)
notes: Frizzled4 cysteine-rich domain, human, residues 42-179; Glycosylated and deglycosylated samples of the same construct are kept as one molecule; the assay's format tells which was used; also called human Fz4CRD; source: HEK293T, secreted, purified (IMAC, HRV-3C cleavage, IMAC, SEC); with kifunensine and Endo-F1 treatment for crystallisation and the deglycosylated samples; fully glycosylated for …

Experiments:
[1] = target: T1, Frizzled8 cysteine-rich domain, mouse; assay: SPR; Biacore T200, 25 C, 10 mM HEPES, pH 7.5, 0.15 M NaCl, 0.005% Tween20; biotinylated Norrin variants captured on streptavidin coupled to a CM5 chip; glycosylated FzCRD proteins or Lrp6 P1E1P2E2 as analytes; equilibrium binding, 1:1 Langmuir model; whether the biotinylated Norrin was purified before capture is not told
[2] = target: T2, Frizzled5 cysteine-rich domain, mouse; assay: as above
[3] = target: B2; assay: as above
[4] = target: T3, Lrp6 ectodomain fragment comprising the …; assay: as above
[5] = target: T4, Norrin (Norrie Disease Protein), recombinant wild-type after removal of the SUMO fusion tag (human, UniProt Q00604 25-133); assay: SAXS; deglycosylated Norrin-Fz4CRD complex at 1.02 and 2.14 mg/ml in 10 mM HEPES, 0.5 M NaCl, without SOS; 293 K; conditions: both partners purified
T4 construct: Norrin (Norrie Disease Protein), human, UniProtKB/Swiss-Prot Q00604, residues 25-133; Disulphide-linked homodimer (Cys93-Cys95, Cys95-Cys93, Cys131-Cys131); also called untagged Norrin; Norrin wild-type; source: for the complex co-expressed with Fz4CRD in HEK293T with kifunensine and valproic acid, purified (IMAC, SEC); not shown: Strep-II, N-terminal, cleaved; His8, N-terminal, cleaved; SUMO (S. …)

[6] = target: T5, Norrin R107E/R109E/R115L (in the Norrin R107E/R109E/R115L-Fz4CRD complex) (human, UniProt Q00604 25-133, R107E | R109E | R115L); assay: SEC-MALS; Norrin-Fz4CRD complex at 25 uM (glycosylated and deglycosylated), without SOS, on Superdex S200 10/300 GL in 10 mM HEPES, pH 7.5, 0.15 mM NaCl (so in the source); conditions: both partners purified
T5 construct: Norrin, human, UniProtKB/Swiss-Prot Q00604, residues 25-133; source: HEK293T, complex with Fz4CRD, purified (SEC)

Kd [1] [µM]	Kd [2] [µM]	Kd [3]	Kd [4] [µM]	stoichiometry N [5]	stoichiometry N [6]	Binder
64	42	1.1 µM and 1 µM	2.87	–	–	B1
–	–	–	–	2 Fz4CRD per Norrin dimer (printed 2:2)	2 Fz4CRD per Norrin dimer (printed 2:2)	B2
